Reference: patent US20220251232A1 (INSERM INSTITUT NATIONAL DE LA SANT ET DE LA RECHERCHE M …, published 2022)
Positions count from the first letter of the chain named. Each block holds one binder with its values, some of them ahead of it.

Biological target: T1, human CD25 (Interleukin-2 receptor alpha chain) (human, UniProt P01589 22-272)
T1 sequence (looked up): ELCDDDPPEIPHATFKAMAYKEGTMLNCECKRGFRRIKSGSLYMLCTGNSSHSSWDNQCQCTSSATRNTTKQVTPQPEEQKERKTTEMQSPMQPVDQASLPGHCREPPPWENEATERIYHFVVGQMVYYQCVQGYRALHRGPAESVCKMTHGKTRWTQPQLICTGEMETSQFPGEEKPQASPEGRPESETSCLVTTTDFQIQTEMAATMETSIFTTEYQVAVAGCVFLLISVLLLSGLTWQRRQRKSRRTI
Test: cell-based or functional assay

IL-2 induced T-cell proliferation, Mean (control = 100): 81.7
B1: ALD25H2 anti-CD25 antibody (antibody, V domains shown)
VH: EVQLVESGGGLVQPGRSMKLSCAASGFTFSNHAMAWVRQAPKKGLEWVAYISYDGDNTYYRDSVKGRFTISRDNAKSTLYLQIDSLRSEDTATYYCTTGGNSGYDWGQGVMVTVSS
VL: DIQMTQSPSFLSASVGDRVTINCKASQNVNKFVNWYQQKLGEAPRRLIYGTNSLQTGIPSRFSGSGSGTDYTLTISSLQPEDVATYFCQQYSSWPWTFGGGTKLELK

IL-2 induced T-cell proliferation, Mean (control = 100): 78.1
B2: ALD25H1 anti-CD25 antibody (antibody, V domains shown)
VH: B1 VH with T28P, N31D, E46Q, K76R, Y80F, I83M
VL: B1 VL with V33L

IL-2 induced T-cell proliferation, Mean (control = 100): 73
B3: ALD25H4 anti-CD25 antibody (antibody, V domains shown)
VH: B1 VH with A24V, K76Q, I83M
VL: B1 VL with A25G, V33L, S92T

IL-2 induced T-cell proliferation, Mean (control = 100): 55
B4: 7G7B6 monoclonal antibody (IL-2 non-competitive anti-CD25 antibody) (antibody, V domains shown)
VH: EVQLVESGGDLVQPRGSLKLSCAASGFTFSSYGMSWVRQTPDKRLELVATINGYGDTTYYPDSVKGRFTISRDNAKNTLYLQMSSLKSEDTAMYFCARDRDYGNSYYYALDYWGQGTSVTVSS
VL: QIVLSQSPAILSASPGERVTMTCRASSSVSFMHWLQQKPGSSPKPWIYATSNLASGVSARFSGSGSGTSYSLTITRVEAEDAATYYCQQWSSNPPAFGGGTKLEIK
